# Data reported in the supplement of paper PMC12764529.
# ± gives the half width of the 95% confidence interval.
# Experiments:
# [1] = folding stability dG unfold from trypsin proteolysis; higher = more stable
# Method in brief: (§1)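 Digests were run with trypsin and chymotrypsin at 11 concentrations in threefold dilutions, plus a no-protease condition, on designed mini-proteins in a PA-tagged cDNA display construct. The mini-proteins were under 80 residues, had no cysteine, and were kept only when AlphaFold2 dimer inter-PAE was above 15. After sequencing, Bayesian fitting of the counts gave K50, from which unfolding free energy was derived against a sequence-predicted unfolded-state K50 and a shared folded-state K50, per protease or combined.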
# [2] = folding stability dG unfold (combined trypsin and chymotrypsin); higher = more stable
# Method in brief: as §1
# [3] = folding stability dG unfold from chymotrypsin proteolysis; higher = more stable
# Method in brief: as §1
Sequence,folding stability dG unfold [1] [kcal/mol],folding stability dG unfold [2] [kcal/mol],folding stability dG unfold [3] [kcal/mol]
SAGGSAGGSAGGGNPFLVRTEFFTLPDNTVIRRLAVVHSDGSLSVFPSLLPVPPNSLKLSAGGSAGGSAGGS [r10_280_TrMRF],0.412 ± 0.041,0.914 ± 0.053,1.18 ± 0.087
SAGGSAGGSAGGGRRLVLVKVPPDVPEEVIREFARRLVEEGVPEPVVVERLEDDYALVLVSAGGSAGGSAGG [r7_283_TrMRF],0.861 ± 0.21,1.01 ± 0.17,1.23 ± 0.24
SAGGSAGGSAGGGRTYTFTLPDGTVLTVTADDMTEEEIRAKLEAEGGEIVEITVEPGLSSAGGSAGGSAGGS [r10_572_JUSTAS],2.43 ± 0.034,2.86 ± 0.07,2.991 ± 0.018
SAGGSAGGSAGGGSIVIENPEKGLTLTYDPATGNVTITFPGGERKVSPVGSIEKAKELLSAGGSAGGSAGGS [r10_849_JUSTAS],0.787 ± 0.059,1.02 ± 0.06,1.15 ± 0.028
SAGGSAGGSAGGGSMPLLTETRKSLVVDPETGRLREVTTTTIRFPDRNTSQVTTTVTPVSSAGGSAGGSAGG [r7_196_JUSTAS],0.771 ± 0.063,0.41 ± 0.14,0.139 ± 0.081
SAGGSAGGSAGGGSMPVKEEVIVEVDPTEVPVTLVTTTVVKTYPDGSVEETVTVEVKLVSAGGSAGGSAGGS [r10_598_JUSTAS],0.818 ± 0.085,0.777 ± 0.18,0.281 ± 0.059
SAGGSAGGSAGGGSVSGSTPLTLPDSPVTRYSYPDSLVTFVPEKGVVITVSGSSTTVALSAGGSAGGSAGGS [r10_559_JUSTAS],0.825 ± 0.03,0.654 ± 0.11,0.44 ± 0.077
SAGGSAGGSAGGGSVTLKRPGGSEVTLPDVTADSTITTLPDGTTVVTIPGTGKTYVVPSSAGGSAGGSAGGS [r10_1035_JUSTAS],0.604 ± 0.03,0.495 ± 0.093,0.111 ± 0.2
SAGGSAGGSAGGGWIYMVTIEPKEVKRSPDPGGKGRPTFEFEMDITIIWIRVDPEDLDDSAGGSAGGSAGGS [r10_654_TrROS],2.85 ± 0.13,3.76 ± 0.15,4.14 ± 0.073
SAGGSAGGSAGGGYTLVTVTLRSPTPTEEVVEEKYPPSVPLEEVKAKYEPLGWEVSFDLLSAGGSAGGSAGG [r7_226_JUSTAS],0.936 ± 0.025,0.832 ± 0.061,0.422 ± 0.13
SAGGSAGGSAGGHKIDIEWERYEDGMYRVTITIRSNNGPRKIPFWVPPGYETADDILKQISAGGSAGGSAGG [r7_75_TrROS],1.8 ± 0.075,1.88 ± 0.18,1.71 ± 0.066
SAGGSAGGSAGGIDFPEKGFVVVVTFPDGSKAEFEVPSDRPLVLNETAGDVTVDEIREKDSAGGSAGGSAGG [r7_542_TrMRF],0.955 ± 0.14,0.458 ± 0.13,-0.125 ± 0.18
SAGGSAGGSAGGIEIRGPNGAELKIESDPDWGMVSIEMPGNRQEIQIPIPLPKPDPEDKNSAGGSAGGSAGG [r7_383_TrROS],0.838 ± 0.038,0.568 ± 0.072,0.22 ± 0.031
SAGGSAGGSAGGIHIPAYEAIDFAKENADNGEPVPIEVHNPGNGKPEEREITPDDLDKISAGGSAGGSAGGS [r10_779_TrROS],0.402 ± 0.039,0.454 ± 0.06,0.428 ± 0.016
SAGGSAGGSAGGIKIERDPNYWVIEIEIPIYMPQPDPDGEIKEPKPIAPITITILIPPGGSAGGSAGGSAGG [r7_3_TrROS],2.09 ± 0.17,2.21 ± 0.2,2.22 ± 0.11
SAGGSAGGSAGGIPPDVKVKPVATVNLTAEVEVTVLGPEGGPTFTVKVEVKVVFAESTDSAGGSAGGSAGGS [r10_758_TrMRF],1.51 ± 0.37,2.11 ± 0.26,2.57 ± 0.24
SAGGSAGGSAGGITLEEILKLIKDQPPGETRMIRLPGNGYTIQIYYEDNQLEIDIEPVKDSAGGSAGGSAGG [r7_448_TrROS],1.06 ± 0.029,1.41 ± 0.078,1.57 ± 0.032
SAGGSAGGSAGGKAKIEMESETIPFKNDDGEKYYIQIMRFEVEVGGKKVTATAISIMPLDSAGGSAGGSAGG [r7_248_TrROS],2.22 ± 0.22,2.98 ± 0.4,3.53 ± 0.16
SAGGSAGGSAGGKEPKKVKVYLFNENGELIGVFELEVETLEELEEAVRKLGFLAVVEPESAGGSAGGSAGGS [r10_958_TrMRF],4.14 ± 0.096,4.4 ± 0.077,4.43 ± 0.069
SAGGSAGGSAGGKEYEVIEVEVNMTIEELKKLFPNVVEIKVEKNENGELKVTIIIKKDKSAGGSAGGSAGGS [r10_764_TrROS_Hall],1.92 ± 0.08,2.31 ± 0.12,2.5 ± 0.11
SAGGSAGGSAGGKEYKVVEFEVLLEDPEPVKAVALIDPDGPVRVFLGDKVYTFKRDELGSAGGSAGGSAGGS [r10_649_TrMRF],-0.081 ± 0.071,0.766 ± 0.073,1.13 ± 0.13
